The text below walks through data of patent US20240350630A1.

Assay [1] deals with rBCMA conjugated with AF647 (UniProt Q02223). Nature of the assay: flow cytometry of primary T cells transduced with the CAR, stained with labelled recombinant BCMA (sheet: rBCMA-APC, APC-A; text: BCMA-AF647 at 1 ug/ml); untransduced T cells (UT) give 0.61 in the same gate. (In general: Flow cytometry measures light scatter and fluorescence of single cells or particles in a stream.)

In assay [2] the target is recombinant human BCMA (Acro Biosystems) (human) (UniProt Q02223). Nature of the assay: SPR: scFv-Fc captured on an anti-human IgG Fc CM5 chip (sheet: ligand 20nM), recombinant human BCMA as analyte, 1:1 Binding model, 25 C. (In general: SPR reads the build-up and loss of mass on a sensor chip optically.)
For assay [3] the target is unchanged. Briefly: SPR, scFv-Fc captured by anti-human IgG Fc on a CM5 chip, BCMA as analyte, global fit.

Broadly, the Kd is the constant that tells how readily two partners part at equilibrium. Usually koff stands for a measure of how fast the partners let go of each other. As usually defined, the kon is a measure of how fast the partners come together.

B1: 15B2 (protein, part only; not given: hinge, transmembrane and signalling domains, part only)
CAR chain, part: EVQLVESGGGLVKPGGSLRLSCAASGFTFRSYSMNWVRQAPGKGLEWVSSISGSSNYIYYADSVKGRFTISRDNAKNSLYLQMNSLRAEDTAVYYCARGGNYYVEYFQYWGQGTLVTVSSGGGGSGGGGSGGGGSGGGGSEIVLTQSPGTLSLSPGERATLSCRASQYISSNYLAWYQQKPGQAPRLLIYGASNRATGIPDRFSGSGSGTDFTLTISRLEPEDFAVYYCQQYGSSPITFGQGTKLEIK
On to B1, for which the % BCMA CAR+ cells in assay [1] stood at 99.6%.

B2: L15 scFv-Fc (Fc fusion, not shown: a dimerising Fc or GST; small tags and cut ends)
scFv: EVQLVESGGGLVKPGGSLRLSCAASGFTFSSYSMNWVRQAPGKGLEWVSSISGQSNYIYYADSVKGRFTISRDNAKNSLYLQMNSLRAEDTAVYYCARGGNYFVEYFQYWGQGTLVTVSSGSGGGGSGGGGSGGGGSGGGGSEIVLTQSPGTLSLSPGERATLSCRASQYISSNNLAWYQQKPGQAPRLLIYGASNRATGIPDRFSGSGSGTDFTLTISRLEPEDFAVYYCQQYADSPITFGQGTKLEIK
Turning to B2, in assay [2], the Kd is 0.371 nM, the koff was 0.000673 s⁻¹ and the kon was determined as 1.81e+06 M⁻¹ s⁻¹. In assay [3], the Kd amounted to 0.37 nM.

B3: 7A8.11 scFv-Fc (Fc fusion, not shown: a dimerising Fc or GST; small tags and cut ends)
scFv: EVQLVESGGGLVQPGGSLRLSCEASGFTFSSFWMNWVRQAPGKGLEWVANIKEDGSEKYYVDSVKGRFTISRDNAKNSLYLQMNSLRVEDTAVYYCARALDYYGMDVWGQGTTVTVSSGGGGSGGGGSGGGGSGGGGSYIVMTQTPLSLPVTPGEPASISCRSSQSLLDSDDGNTYLDWYLQKPGQSPQLLIYTLSYRASGVPDRFSGSGSGTDFTLKISRVEAEDVGVYYCMQRIEFPSYTFGQGTKLEIK
On to B3, for which, in assay [2], the Kd is 0.355 nM, the koff was determined as 0.00486 s⁻¹ and the kon is 1.37e+07 M⁻¹ s⁻¹. The dissociation constant Kd in assay [3] was determined as 0.44 nM.
